Test results: patent US20190359723A1 (CARSGEN THERAPEUTICS, published 2019)
Where a chain is given by its changes, count along the chain named.

T1: IL-13RA2 endogenously expressed on U251 cells (human, UniProt Q14627 27-380)
T1 construct: whole, on cells; also called U251 cells expressing IL13RA2; U251 (IL-13RA2-positive)
T1 sequence (looked up): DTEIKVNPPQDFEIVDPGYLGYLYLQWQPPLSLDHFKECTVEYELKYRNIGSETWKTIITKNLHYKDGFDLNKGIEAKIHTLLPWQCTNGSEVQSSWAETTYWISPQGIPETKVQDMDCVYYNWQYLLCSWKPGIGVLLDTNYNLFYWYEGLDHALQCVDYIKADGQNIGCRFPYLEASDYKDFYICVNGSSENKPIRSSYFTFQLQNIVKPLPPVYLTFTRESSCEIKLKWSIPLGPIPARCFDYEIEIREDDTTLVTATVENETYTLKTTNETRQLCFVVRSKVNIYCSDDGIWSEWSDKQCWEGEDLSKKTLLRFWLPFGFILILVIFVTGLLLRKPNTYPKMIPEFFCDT

T2: Murine IL-13RA2 (murine, UniProt O88786 22-334, limits assumed)
T2 construct: Bought recombinant protein; coated on the ELISA plate at 5 ug/ml
T2 sequence (looked up): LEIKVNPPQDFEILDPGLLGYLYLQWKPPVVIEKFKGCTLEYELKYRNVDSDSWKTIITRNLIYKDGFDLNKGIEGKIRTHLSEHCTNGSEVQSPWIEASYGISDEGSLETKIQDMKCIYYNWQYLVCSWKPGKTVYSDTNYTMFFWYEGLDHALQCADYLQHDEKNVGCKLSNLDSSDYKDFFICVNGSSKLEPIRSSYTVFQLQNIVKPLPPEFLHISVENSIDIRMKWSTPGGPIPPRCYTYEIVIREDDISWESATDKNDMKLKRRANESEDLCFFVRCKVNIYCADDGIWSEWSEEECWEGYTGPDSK

B1: 5D7 (scFv) (scFv)
scFv: EVQLLESGGGLVQPGGSLRLSCAASGFTFSNYAMSWVRQAPGKGLEWVSGIRSSGGRTFYADSVKGRFTISRDNSKNTLYLQMNSLRAEDTAVYYCARVAFSGSFDYWGQGTLVTVSSGGGGSGGGGSGGGGSDIQMTQSPSTLSASVGDRVTITCRASQSISSWLAWYQQKPGKAPKLLIYDASSLESGVPSRFSGSGSGTEFTLTISSLQPDDFATYYCQQRNRYPPTFGQGTKVEIK
notes: also called clone 5D7
B2: 5D7 (scFv_Fc form) (Fc fusion)
scFv: B1 scFv
notes: not shown: human Fc segment of the eukaryotic expression vector V152
B3: 5G3 (scFv) (scFv)
scFv: B1 scFv with N31S, A33V, M34L, G50A, S53G, G55A, R57N, F59Y
notes: also called clone 5G3
B4: 5G3 (scFv_Fc form) (Fc fusion)
scFv: B1 scFv with N31S, A33V, M34L, G50A, S53G, G55A, R57N, F59Y
notes: as for B2
B5: 1B11 (scFv) (scFv)
scFv: EVQLLESGGGLVQPGGSLRLSCAASGFTFSRDALNWVRQAPGKGLEWVSAISGSGGSTFYADSVKGRFTISRDNSKNTLYLQMNSLRAEDTAVYYCAKVRYGWGAGAFDYWGQGTLVTVSSGGGGSGGGGSGGGGSDIQMTQSPSTLSASVGDRVTITCRASQSISSWLAWYQQKPGKAPKLLIYDASSLESGVPSRFSGSGSGTEFTLTISSLQPDDFATYYCQQYDTYPPITFGQGTKVEIK
notes: also called clone 1B11
B6: 2D4 (scFv_Fc form) (Fc fusion)
scFv: B5 scFv with S30R, R31K, D32Y, L34M, N35G, A50G, G55V, F59Y
notes: as for B2
B7: 2A5 (scFv) (scFv)
scFv: B5 scFv with D32Y, L34M, G53A, S57G, F59Y
notes: also called clone 2A5
B8: 1D11 (scFv) (scFv)
scFv: B5 scFv with S30G, R31T, D32I, A33P, L34M, N35S, A50S, G55A, F59Y
notes: also called clone 1D11
B9: 2C7 (scFv) (scFv)
scFv: B5 scFv with S30K, R31L, D32P, L34M, N35S, S52T, F59Y
notes: also called clone 2C7
B10: 1B11 (scFv_Fc form) (Fc fusion)
scFv: B5 scFv
notes: as for B2
B11: 1D8 (scFv) (scFv)
scFv: B5 scFv with D32Y, L34M, S52N, G53A, F59Y
notes: also called clone 1D8
B12: 1H7 (scFv) (scFv)
scFv: B5 scFv with S30R, D32Y, L34M, N35S, A50G, S57G, F59Y
notes: also called clone 1H7
B13: 2D4 (scFv) (scFv)
scFv: B5 scFv with S30R, R31K, D32Y, L34M, N35G, A50G, G55V, F59Y
notes: also called clone 2D4
B14: 2C7 (scFv_Fc form) (Fc fusion)
scFv: B5 scFv with S30K, R31L, D32P, L34M, N35S, S52T, F59Y
notes: as for B2

Experiments:
IL-13RA2 huFc [1] = molecular target: T3, IL-13RA2 huFc (human); assay: SPR (Biacore), induced scFv supernatant; column head: Dissociation constant Kd(S-1)
T3 construct: Expressed in 293F cells, purified on protein A; also called human IL13RA2; recombinant IL-13RA2
Target sequence in this assay (chain, as listed by the source limits assumed): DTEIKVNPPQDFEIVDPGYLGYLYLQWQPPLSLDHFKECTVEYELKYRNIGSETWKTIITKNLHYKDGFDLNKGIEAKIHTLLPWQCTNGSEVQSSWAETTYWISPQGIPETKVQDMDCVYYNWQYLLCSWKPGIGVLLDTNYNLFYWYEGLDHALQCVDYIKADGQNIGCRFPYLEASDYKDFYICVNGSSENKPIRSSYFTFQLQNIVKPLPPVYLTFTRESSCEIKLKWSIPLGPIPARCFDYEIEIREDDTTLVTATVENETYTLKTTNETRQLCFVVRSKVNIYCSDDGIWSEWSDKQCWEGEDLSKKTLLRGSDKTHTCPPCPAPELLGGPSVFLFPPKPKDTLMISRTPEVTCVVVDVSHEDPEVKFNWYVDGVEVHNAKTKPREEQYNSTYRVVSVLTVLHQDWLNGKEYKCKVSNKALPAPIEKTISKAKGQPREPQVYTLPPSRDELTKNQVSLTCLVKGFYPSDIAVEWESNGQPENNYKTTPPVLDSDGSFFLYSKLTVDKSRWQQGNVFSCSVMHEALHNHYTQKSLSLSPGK

IL-13RA2 huFc [2] = molecular target: T3, IL-13RA2 huFc; assay: SPR (Biacore T200), nickel-purified scFv
Experimental: (§1) IL-13RA2 huFc was coated on the CMS chip by amino coupling, coated to about 500 RU, and the gradiently diluted antibodies were passed through the antigen-coated channel at a flow rate of 30 ul/min as a mobile phase. The running buffer was HBS-N and the temperature was 25° C. The experimental data was analyzed by BIAevaluation 3.2 and the kinetic curves were fitted using a 1:1 langmuir model.
Affinity purification was performed using a nickel column, affinity was measured using biacore T200, and the association and dissociation constants of the affinity matured antibodies are shown as in FIG. 10A.

IL-13RA2 huFc [3] = molecular target: T3, IL-13RA2 huFc; assay: Biacore, induced supernatant of the scFv clone; parent 32H4
[4] = molecular target: T1, IL-13RA2 endogenously expressed on U251 …; assay: flow cytometry on U251 cells, scFv_Fc form, 5-fold dilutions from 2,000 nM, FITC anti-human IgG
Experimental: Following the method of Example 6, cells were harvested, washed once with a growth medium, and resuspended in PBS, and the cell concentration was adjusted to 4E+5 cells/ml. The gradiently diluted scFv_Fc fusion antibody was incubated with the cells for 30 minutes on ice, and the antibody was 5-fold serially diluted with 2,000 nM as the initial concentration, into 11 gradients. Then the mixture was incubated with a FITC-labeled anti-human IgG secondary antibody. After two washing steps, detection was performed using a Guava easyCyte™ HT System instrument. […] There is also a 2-8 fold increase compared with the parent antibody.

IL-13RA2 huFc [5] = molecular target: T3, IL-13RA2 huFc; assay: SPR (Biacore T200), scFv_Fc forms on IL-13RA2 huFc, summary table
Experimental: as §1
(§2) Affinity was determined using the method of Example 5 using biacore T200, and the results are shown as in FIGS. 11B-11G. […] The association and dissociation constants of the antibodies are shown as in FIG. 11F.

IL-13RA2 huFc [6] = molecular target: T3, IL-13RA2 huFc; assay: SPR (Biacore T200), ligand IL13Ra2 on the chip, scFv_Fc as analyte at 6.25 to 100 nM, 1:1 binding fit, flow 30 ul/min
Experimental: as §1, §2

IL-13RA2 huFc [7] = molecular target: T3, IL-13RA2 huFc; assay: SPR (Biacore T200), ligand IL13Ra2 on the chip, scFv_Fc as analyte at 100, 50, 25 and 6.25 nM, 1:1 binding fit, flow 30 ul/min
Experimental: as §1, §2

IL-13RA2 huFc [8] = molecular target: T3, IL-13RA2 huFc; assay: Biacore, induced supernatant of the scFv clone; parent 31C2
IL-13RA1_huFc = molecular target: T4, IL-13RA1_huFc (human); assay: ELISA by the method of Example 3, antibody concentration not given; bars assigned by their order in the legend
T4 construct: IL-13RA1 extracellular segment, 'GS', Fc segment Asp104-Lys330 of the human IgG1 heavy chain constant region; also called human IL13RA1
Experimental: (§3) The species specificity of antibodies 31C2 and 32H4 was determined by standard ELISA. Murine IL-13RA2 was purchased from Sino Biological Inc. The ELISA plate was coated with 100 ul of 5 ug/ml murine IL-13RA2 per well at 4° C. overnight. The coated ELISA plate was washed with PBS three times. 200 ul solution of 2% skim milk powder in PBS per well was added for blocking at room temperature for 1 hour. The plate was washed with PBS three times. The gradiently diluted antibodies with a starting concentration of 10 μg/ml, 3-fold serially diluted, were added and incubated at room temperature for 1 hr. The mixture was washed with PBST three times and washed with PBS three times. HRP-labeled goat anti-human Fc was added and incubated at room temperature for 1 hour. The mixture was washed with PBST three times and washed with PBS three times. After TMB was added for color development for 15 minutes, and the reaction was stopped by the addition of sulfuric acid, and read on a microplate reader.
(§4) The specificity of the antibodies 5D7, 2C7, 5G3, 2D4, 2D3 and 1B11 was determined by standard ELISA following the method of Example 3. The results were shown as in FIG. 10B.

Murine IL-13RA2 = molecular target: T2, Murine IL-13RA2; assay: as above
Experimental: as §3, §4

T4 sequence (chain, as listed by the source limits assumed): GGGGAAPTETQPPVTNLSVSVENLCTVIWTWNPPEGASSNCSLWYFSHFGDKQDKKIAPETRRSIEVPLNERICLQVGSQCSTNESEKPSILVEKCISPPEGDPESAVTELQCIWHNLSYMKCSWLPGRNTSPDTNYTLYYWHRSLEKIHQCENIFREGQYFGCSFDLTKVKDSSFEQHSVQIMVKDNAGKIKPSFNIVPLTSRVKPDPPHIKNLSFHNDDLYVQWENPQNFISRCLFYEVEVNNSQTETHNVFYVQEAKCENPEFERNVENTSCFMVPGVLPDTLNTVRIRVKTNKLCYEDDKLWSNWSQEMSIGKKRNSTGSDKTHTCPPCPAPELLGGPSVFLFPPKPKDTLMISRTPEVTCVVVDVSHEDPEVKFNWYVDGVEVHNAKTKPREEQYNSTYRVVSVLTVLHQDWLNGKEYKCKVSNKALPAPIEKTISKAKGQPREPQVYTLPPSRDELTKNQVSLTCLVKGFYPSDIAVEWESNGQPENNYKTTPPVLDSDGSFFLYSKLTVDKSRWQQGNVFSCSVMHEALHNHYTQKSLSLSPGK

Binder | koff (IL-13RA2 huFc [1]) | Kd (IL-13RA2 huFc [2]) | koff (IL-13RA2 huFc [2]) | kon (IL-13RA2 huFc [2]) | EC50 [4] | Kd (IL-13RA2 huFc [5]) | koff (IL-13RA2 huFc [5]) | kon (IL-13RA2 huFc [5]) | fold lower dissociation constant Kd than the parent clone (IL-13RA2 huFc [8]) | other results
B1 | 0.00154 s⁻¹ | 5.4 nM | 0.000443 s⁻¹ | 82200 M⁻¹ s⁻¹ | – | – | – | – | – | fold lower dissociation constant Kd than the parent clone (IL-13RA2 huFc [3]): > 10 times
B2 | – | – | – | – | 0.56 nM | 0.335 nM | 0.000247 s⁻¹ | 737000 M⁻¹ s⁻¹ | – | Kd (IL-13RA2 huFc [6]): 0.335 nM; koff (IL-13RA2 huFc [6]): 0.000247 s⁻¹; kon (IL-13RA2 huFc [6]): 737000 M⁻¹ s⁻¹
B3 | 0.000941 s⁻¹ | 8.34 nM | 0.000586 s⁻¹ | 70300 M⁻¹ s⁻¹ | – | – | – | – | – | fold lower dissociation constant Kd than the parent clone (IL-13RA2 huFc [3]): > 10 times
B4 | – | – | – | – | 0.53 nM | 0.194 nM | 0.000134 s⁻¹ | 690000 M⁻¹ s⁻¹ | – | Kd (IL-13RA2 huFc [7]): 0.194 nM; koff (IL-13RA2 huFc [7]): 0.000134 s⁻¹; kon (IL-13RA2 huFc [7]): 690000 M⁻¹ s⁻¹
B5 | 0.000736 s⁻¹ | 17.5 nM | 0.000803 s⁻¹ | 46000 M⁻¹ s⁻¹ | – | – | – | – | > 10 times | binding result (IL-13RA1_huFc): no binding; binding result (Murine IL-13RA2): binds
B6 | – | – | – | – | 0.37 nM | 0.174 nM | 0.000113 s⁻¹ | 646000 M⁻¹ s⁻¹ | – | Kd (IL-13RA2 huFc [6]): 0.174 nM; koff (IL-13RA2 huFc [6]): 0.000113 s⁻¹; kon (IL-13RA2 huFc [6]): 646000 M⁻¹ s⁻¹
B7 | 0.000788 s⁻¹ | 15.5 nM | 0.000656 s⁻¹ | 42400 M⁻¹ s⁻¹ | – | – | – | – | > 10 times | –
B8 | 0.000677 s⁻¹ | 9.89 nM | 0.000386 s⁻¹ | 39000 M⁻¹ s⁻¹ | – | – | – | – | > 10 times | –
B9 | 0.000501 s⁻¹ | 5.42 nM | 0.00041 s⁻¹ | 75700 M⁻¹ s⁻¹ | – | – | – | – | 10 times | –
B10 | – | – | – | – | 0.47 nM | 1.04 nM | 0.000263 s⁻¹ | 253000 M⁻¹ s⁻¹ | – | Kd (IL-13RA2 huFc [6]): 1.04 nM; koff (IL-13RA2 huFc [6]): 0.000263 s⁻¹; kon (IL-13RA2 huFc [6]): 252000 M⁻¹ s⁻¹
B11 | 0.00094 s⁻¹ | 13.8 nM | 0.000911 s⁻¹ | 66000 M⁻¹ s⁻¹ | – | – | – | – | > 10 times | –
B12 | 0.000888 s⁻¹ | 12.1 nM | 0.000765 s⁻¹ | 63200 M⁻¹ s⁻¹ | – | – | – | – | > 10 times | –
B13 | 0.000837 s⁻¹ | 8.92 nM | 0.000745 s⁻¹ | 83500 M⁻¹ s⁻¹ | – | – | – | – | > 10 times | binding result (IL-13RA1_huFc): no binding; binding result (Murine IL-13RA2): binds
B14 | – | – | – | – | 0.57 nM | 0.248 nM | 9.15e-05 s⁻¹ | 369000 M⁻¹ s⁻¹ | – | Kd (IL-13RA2 huFc [6]): 0.248 nM; koff (IL-13RA2 huFc [6]): 9.15e-05 s⁻¹; kon (IL-13RA2 huFc [6]): 369000 M⁻¹ s⁻¹
